Patent US20160152703A1 (PERSEUS PROTEOMICS, published 2016)
Changes are numbered by the printed parent chain. Values belong to the binder of their own block, whether it stands above or below them.

Experiments:
[1] = biological target: T1, full-length human CDH3 with myc-His tag, forcibly expressed on CHO cells (EXZ1501) (human, UniProt P22223 108-829); assay: flow cytometry on CHO cells with forcible expression of CDH3
T1 construct: Clones were selected by Western blotting with an anti-c-Myc antibody; also called CDH3 full-length expression CHO cell line (EXZ1501); CHO cells with forcible expression of CDH3; not shown: C-terminal myc-His tag from vector pEF4/myc-HisB
T1 sequence (P22223 108-829): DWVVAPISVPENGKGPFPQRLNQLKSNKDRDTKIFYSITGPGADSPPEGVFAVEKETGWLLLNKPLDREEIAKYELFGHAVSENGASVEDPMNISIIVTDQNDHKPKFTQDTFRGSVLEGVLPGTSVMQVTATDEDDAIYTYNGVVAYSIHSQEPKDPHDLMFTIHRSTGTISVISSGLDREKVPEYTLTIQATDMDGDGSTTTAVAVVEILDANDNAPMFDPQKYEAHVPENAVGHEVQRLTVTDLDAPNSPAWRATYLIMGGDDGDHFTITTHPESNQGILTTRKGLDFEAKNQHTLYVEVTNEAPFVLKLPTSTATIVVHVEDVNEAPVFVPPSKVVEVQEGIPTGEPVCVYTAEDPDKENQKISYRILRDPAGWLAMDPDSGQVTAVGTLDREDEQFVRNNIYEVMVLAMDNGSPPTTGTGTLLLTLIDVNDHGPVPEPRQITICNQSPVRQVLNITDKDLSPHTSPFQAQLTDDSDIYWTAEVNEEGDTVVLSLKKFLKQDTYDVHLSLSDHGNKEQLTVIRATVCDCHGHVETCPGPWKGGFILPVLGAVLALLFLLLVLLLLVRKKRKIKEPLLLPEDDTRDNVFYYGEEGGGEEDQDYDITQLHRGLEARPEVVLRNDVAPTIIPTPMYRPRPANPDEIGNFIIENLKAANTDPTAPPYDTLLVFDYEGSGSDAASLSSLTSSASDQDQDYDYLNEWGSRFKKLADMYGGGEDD

[2] = biological target: T2, human CDH3 (P-cadherin), endogenous, on cancer cells (human, UniProt P22223 108-829); assay: FACS competition on a CDH3-expressing cell line; competitor: Alexa488-labeled NITE BP-989 antibody
T2 construct: Endogenous CDH3 on NCI-H358 and other human cancer cells or tissues; also called CDH3 on NCI-H358; CDH3-expressing cancer cell line
T2 sequence (P22223 108-829 limits assumed): as the sequence (P22223 108-829) above

[3] = biological target: T2, human CDH3 (P-cadherin), endogenous, on …; assay: flow cytometry on NCI-H358 cells, antibody at 10 ug/mL
Protocol: A cell line that would be used as a reaction target (an NCI-H358 cell line that had been confirmed to express CDH3 at a high level) was treated with 2 mM EDTA-PBS, so that the cells were removed from a culture plate, and the obtained cells were then suspended in a FACS solution to a cell density of 1×10⁶ cells/mL. This cell suspension was seeded on a 96-well plate, resulting in an amount of 50 μL/well, and the purified chimeric antibody was then added to the plate to result in a concentration of 10 μg/mL, followed by performing a reaction at 4° C. for 60 minutes. Thereafter, the reaction mixture was washed with a FACS solution (150 μL/well) two times, and 4 μg/ml AlexaFlour488-labeled anti-human IgG/goat F(ab′)₂ (Invitrogen) was then added to the resultant. The obtained mixture was reacted at 4° C. for 30 minutes. Thereafter, the cells were washed with a FACS solution two times, and was then subjected to flow cytometry.

[4] = biological target: T2, human CDH3 (P-cadherin), endogenous, on …; assay: FACS competition on NCI-H358; competitor: Alexa488-labeled NITE BP-989 antibody; IC50 relative to the antibody without drug, average DAR 0 to 8
Protocol: The influence of humanization on affinity was confirmed by carrying out a competition test using a flow cytometer (FACS). A test antibody whose dilution series had been prepared, a cell line that expressed CDH3, and a certain amount of Amaxa488-labeled antibody that was competitive with the test antibody were allowed to coexist, and the reaction was then carried out at room temperature for 1 hour. Thereafter, the reaction product was washed with a FACS solution, and FACS measurement was then carried out. […] The obtained IC50 value was defined as an index for affinity.
The influence of the average drug-to-antibody ratio (DAR) of the drug binding to the humanized antibody of the present invention on affinity was confirmed by the same competition test using FACS as that in Example 25. The antibody drug conjugate was prepared in the range of average DAR of 0 to 8 by the method described in Example 15. The DAR was quantified by the method described in Example 16.
As a cell line, NCI-H358 was used. […] By the same FACS competition test as that described in Example 25, each IC50 value was calculated as an index for affinity.

B1: PPAT-076-44Hd (antibody, V domains shown)
VH: QVQLVESGGGVVQPGRSLRLSCAASGFSLTSYGVHWVRQAPGKGLEWVGVIWSGGSTDYADSVKGRFTISKDNSKNTVYLQMNSLRAEDTAVYYCARNSNNGFAYWGQGTLVTVSS
VL: DIQLTQSPSSLSASVGDRVTITCRASQNIYSNLAWYQQKPGKAPKLLVYAAKNLASGVPSRFSGSGSGTDFTLTISSLQPEDFATYYCQHFYDTPWTFGQGTKVEIK
notes: also called anti-CDH3 humanized antibody (human germline framework, reshaped); humanized antibody
- binding result [1]: binds
- binding result [2]: binds

B2: PPAT-076-44Hb (antibody, V domains shown)
VH: B1 VH with Q1E, V11L, R16G, G49A
VL: B1 VL with L4M
notes: also called anti-CDH3 humanized antibody (human consensus framework, reshaped)
- binding result [3]: binds
- binding result [1]: binds

Next, values leading:

- binding result [4]: binds
B3: PPAT-076-44Hd, to which a drug is bound (DM1 conjugate) (antibody, human IgG1, V domains shown)
VH: B1 VH
VL: B1 VL
modifications: DM1 bound through Sulfo-SMCC; sites not stated
notes: Human IgG1/kappa; also called CDH3 antibody drug conjugate of PPAT-076-44Hd; drug conjugate of PPAT-076-44Hd

- binding result [4]: binds
B4: PPAT-076-44Hb, to which a drug is bound (DM1 conjugate) (antibody, human IgG1, V domains shown)
VH: B1 VH with Q1E, V11L, R16G, G49A
VL: B1 VL with L4M
modifications: DM1 bound through Sulfo-SMCC; sites not stated
notes: Human IgG1/kappa; also called CDH3 antibody drug conjugate of PPAT-076-44Hb; humanized antibody drug conjugate
